The target of experiment [1] is 48d.cl IC, fusion version (gpCore + 48d heavy chain fusion, Fab-Fab-crosslinked K126C) (HIV-1 strain BG505). The experiment is described as follows: native gel or EMSA.
Experiment [2] has as its target 48d.cl IC, 3 plasmid version (Fab-Fab-crosslinked, K126C) (HIV-1 strain BG505). The experiment is described as follows: native gel or EMSA. A general note: Mobility shift assays separate free from complexed probe on a gel.

Here are results for 2 substances from article PMC12846365.

One may read the stoichiometry N as the number of molecules, sites or subunits per partner or assembly.

With wtVRC01 (antibody), the stoichiometry N in experiment [1] and in experiment [2] was 1 in each case.
Turning to wtA32 (antibody), the stoichiometry N in experiment [1] and in experiment [2] was 2 each time.
